# Measurements published in patent US20220204643A1 (published 2022).
# T1: LIM homeobox 5 (human, UniProt Q9H2C1 1-402)
# T1 construct: HuProt array protein, full-length recombinant from yeast; also called LHX5
# T1 sequence: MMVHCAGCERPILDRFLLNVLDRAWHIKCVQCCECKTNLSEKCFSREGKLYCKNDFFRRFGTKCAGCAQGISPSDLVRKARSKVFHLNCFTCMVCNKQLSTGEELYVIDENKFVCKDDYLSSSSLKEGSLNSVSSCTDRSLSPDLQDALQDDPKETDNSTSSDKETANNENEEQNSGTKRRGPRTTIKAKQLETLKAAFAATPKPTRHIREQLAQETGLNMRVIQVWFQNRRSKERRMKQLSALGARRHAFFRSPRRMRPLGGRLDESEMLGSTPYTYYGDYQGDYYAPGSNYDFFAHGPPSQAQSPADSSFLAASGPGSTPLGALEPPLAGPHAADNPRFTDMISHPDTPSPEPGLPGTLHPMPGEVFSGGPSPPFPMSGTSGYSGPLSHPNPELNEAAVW
# Columns and labels:
# [1] = target: T1, LIM homeobox 5
# [2] = target: T2, growth factor receptor bound protein 2, transcript variant 1 (human, UniProt P62993 1-217)
# T2 construct: HuProt array protein, full-length recombinant from yeast; also called GRB2
# [3] = target: T3, leucine rich repeat containing 28, transcript variant 1 (human, UniProt Q86X40 1-367)
# T3 construct: HuProt array protein, full-length recombinant from yeast; also called LRRC28
# T3 sequence (Q86X40 whole entry, change not shown): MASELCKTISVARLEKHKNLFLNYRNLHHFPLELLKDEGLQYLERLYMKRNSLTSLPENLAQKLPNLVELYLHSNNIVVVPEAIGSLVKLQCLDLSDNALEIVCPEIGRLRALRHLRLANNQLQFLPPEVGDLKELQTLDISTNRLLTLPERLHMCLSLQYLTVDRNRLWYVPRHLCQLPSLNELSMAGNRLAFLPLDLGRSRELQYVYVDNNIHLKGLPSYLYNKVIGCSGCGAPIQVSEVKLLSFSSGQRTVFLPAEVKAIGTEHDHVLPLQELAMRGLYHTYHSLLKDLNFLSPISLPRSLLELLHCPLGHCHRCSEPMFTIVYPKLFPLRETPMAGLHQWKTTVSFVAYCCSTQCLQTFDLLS
binder,measurement,setting,value
"TCOL1009 (antibody, V domains shown, detected with anti-human IgG Fc) VH: PVQLVQSGAEVKKPGASVKVSCKASGDTFPNYVISWVRQAPGQGLEWVGCINTNNGKTNYVQKLQGRVILTTDTSTNTANMELRSLRFDDTAVYYCARERGQVRSYGMDVWGQGTAVTVSS VL: PYELTQPPSVSVSPGQTANITCSGDKLGDICVCWYQQKPGQSPVLVIYQHNKRPSGIPERFSGSNSGNTATLTISATQATDEAIYYCQSWDSSSVLFGGGTKLTVLG",binding result,[1],binds
same,binding result,[2],binds
"TESO1003 (antibody, V domains shown, detected with anti-human IgG Fc) VH: QVQLVESGGGVVQPGRSLRLSCAASGFTFSNYDMHWVRQAPGKGLEWVTVVSYDGTNKYYAESVQGRFTISRDNSKNTLYLQMNSLRTEDTAVYYCAKEGGWGNTVTTSYYYYGMDVWGQGTTVTVSS VL: QIVLTQSPATLSLSPGERATLSCRASQSVSNYLAWYQQKPGQAPRLLIYDASNRATGIPARFSGSGSGTDFTLTISSLEPEDFAVYYCQQRSNWPPYTFGQGTKLDIKR",binding result,[3],binds
